B1: GPC-B antibody 18.5C (IgG) (antibody, V domains shown)
VH: EVQLVQSGGGLVRPGGSLRLSCAAAGFTFKSYSMNWVRQAPGRGLEWVSSITSGGSKTYYADVVKGRFTVSRDNAKQSLYLQMNSLRAEDTAIYFCARSLHSTSQPSYMDVWGRKITVIVSS
VL: DIVLTQSPGTLSLSPGERATLSCRASQSVISYYVAWYQHKGGQAPRLLIYGASSRATGVPDRFSGSGSGTDFTLTISSLEPEDFALYYCQYYGSSPLWAFGQGTKVEIK
notes: copies: 2 + 2
B2: engineered GPC-B antibody 18.5C-M30 (IgG) (antibody, V domains shown)
VH: EVQLVQSGGGLVRPGGSLRLSCAAAGFTFKSYSMNWVRQAPGRGLEWVSSITSRGGSKTYYADVVKGRFTVSRDNAKQSLYLQMNSLRAEDTAIYFCARSRHSTSQPSYMDVWGRKITVIVSS
VL: B1 VL
notes: copies: 2 + 2
B3: GPC-A antibody 25.10C (IgG) (antibody, V domains shown)
VH: QVQLQESGGGLVKPGGSLRLSCTASGFNFNKYNMNWVRQAPGKGLEWVSSISALSTYIYYADSLKGRFTVSRDNAKNSLFLQMNSLRDDDTAVYYCAREIRRASTWSADLWGRGTLVTVSS
VL: DIQMTQSPSSLSASVGDRVIITCRASQSISSSLNWYQQKPGKAPKLLIYAAVNLETGVPSRFSGSGFGTDFTLAISNVQPEDFATYYCQQSDTRTFGRGTKLDVK
notes: copies: 2 + 2

molecular target: LIV-GP, soluble lineage IV LASV pfGP monomer (Lassa virus lineage IV, strain Josiah, stabilised); experiment: BLI; Octet Red384; […] (AHC) capture sensors at 2.5 ug/mL; […]; 1x kinetics buffer (PBS, 0.1% BSA, 0.02% Tween 20); 1:1 fit; […]; conditions: both partners purified

Row | Binder | Kd | koff | kon
1 | B1 | 0.091 nM | 7.8e-05 s⁻¹ | 858000 M⁻¹ s⁻¹
2 | B2 | 0.047 nM | 3.67e-05 s⁻¹ | 780000 M⁻¹ s⁻¹
3 | B3 | < 0.001 nM | < 1e-07 s⁻¹ | 150000 M⁻¹ s⁻¹

molecular target: LI-LASV-pfGP soluble ectodomain monomer (lineage I Lassa virus prefusion glycoprotein) (Lassa virus lineage I, strain Pinneo, stabilised); experiment: as above; conditions: both partners purified

Row | Binder | Kd | koff | kon
4 | B1 | 2.86 nM | 0.00235 s⁻¹ | 819000 M⁻¹ s⁻¹
5 | B2 | 0.559 nM | 0.000423 s⁻¹ | 757000 M⁻¹ s⁻¹
6 | B3 | 3.52 nM | 0.000387 s⁻¹ | 110000 M⁻¹ s⁻¹

From publication PMC9426445 (mBio, 2022)
